Laboratory results as given in patent US20120230981A1 (RESEARCH CORPORATION TECHNOLOGIES, published 2012).

B1: HiswtCH2 (wild type CH2 domain of human IgG1 with a His tag) (other)
chain: APELLGGPSVFLFPPKPKDTLMISRTPEVTCVVVDVSHEDPEVKFNWYVDGVEVHNAKTKPREEQYNSTYRVVSVLTVLHQDWLNGKEYKCKVSNKALPAPIEKTISKAKGQ
notes: also called wild type (WT) CH2; not shown: His tag, 'e.g., 6 histidine residues'

Tests used:
[1] = molecular target: T1, soluble, recombinant hFcRn (human, UniProt P55899 24-297; P61769 21-119, limits assumed, biotinylated in the yeast flow cytometry assays (biotin-soluble FcRn); site not stated); experiment: competition, flow cytometry: IgG1 inhibits binding of soluble FcRn to yeast-displayed m01s at pH 6.0
T1 construct: also called rFcRn; soluble FcRn

[2] = molecular target: T1, soluble, recombinant hFcRn; experiment: Biacore (SPR), HiswtCH2 at 75-1200 nM
Description: For reference, the WT CH2 sequence (without the HIS tag) is shown in SEQ ID NO: 1. “HiswtCH2” of FIG. 1 is the WT CH2 sequence with a His tag, e.g., a group of histidine residues in a row, e.g., 6 histidine residues. […] HiswtCH2 was tested at 75, 150, 300, 600, 1200 nM. The A curves (1A, 2A, 3A, 4A, 5A, and 6A) are binding curves; the B curves (1B, 2B, 3B, 4B, 5B, and 6B) are fitted curves.

T1 sequence (P55899 24-297 limits assumed, chain 1 of 2): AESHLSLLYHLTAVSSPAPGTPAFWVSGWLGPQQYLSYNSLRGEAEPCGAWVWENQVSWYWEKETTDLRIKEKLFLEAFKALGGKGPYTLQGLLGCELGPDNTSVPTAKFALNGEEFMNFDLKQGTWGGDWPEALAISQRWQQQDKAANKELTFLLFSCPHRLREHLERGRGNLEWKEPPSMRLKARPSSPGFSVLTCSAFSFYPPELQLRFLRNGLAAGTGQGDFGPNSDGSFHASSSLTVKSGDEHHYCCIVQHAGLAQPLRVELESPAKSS
T1 sequence (P61769 21-119 limits assumed, chain 2 of 2): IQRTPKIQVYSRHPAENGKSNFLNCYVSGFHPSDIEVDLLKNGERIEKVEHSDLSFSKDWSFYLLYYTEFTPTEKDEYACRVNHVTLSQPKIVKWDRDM

Molecule | IC50 [1] [nM] | Kd [2] [nM] | koff [2] [s⁻¹] | kon [2] [M⁻¹ s⁻¹]
IgG1 (antibody) | 629 | – | – | –
B1 | – | 90.8 | 0.00184 | 20300
